Laboratory results published in JP2018153172A (dated 2018).
Where a chain is given by its changes, count along the chain named. One block for each binder: values may come before it. Ends that are not written are not given here.

Key:
[1] = target: T1, 可溶性ヒトgp130受容体 (soluble human gp130 receptor, extracellular region of SEQ ID NO 1 with six histidines) (human, UniProt P40189 23-619); test: SPR, Biacore T200, gp130 on CM5, antibody as analyte
T1 construct: Secreted from CHO DG44 cells and purified on HisTrap; no cleavage site is stated; also called 可溶性ヒトgp130受容体タンパク質; ヒト可溶性gp130受容体
T1 sequence: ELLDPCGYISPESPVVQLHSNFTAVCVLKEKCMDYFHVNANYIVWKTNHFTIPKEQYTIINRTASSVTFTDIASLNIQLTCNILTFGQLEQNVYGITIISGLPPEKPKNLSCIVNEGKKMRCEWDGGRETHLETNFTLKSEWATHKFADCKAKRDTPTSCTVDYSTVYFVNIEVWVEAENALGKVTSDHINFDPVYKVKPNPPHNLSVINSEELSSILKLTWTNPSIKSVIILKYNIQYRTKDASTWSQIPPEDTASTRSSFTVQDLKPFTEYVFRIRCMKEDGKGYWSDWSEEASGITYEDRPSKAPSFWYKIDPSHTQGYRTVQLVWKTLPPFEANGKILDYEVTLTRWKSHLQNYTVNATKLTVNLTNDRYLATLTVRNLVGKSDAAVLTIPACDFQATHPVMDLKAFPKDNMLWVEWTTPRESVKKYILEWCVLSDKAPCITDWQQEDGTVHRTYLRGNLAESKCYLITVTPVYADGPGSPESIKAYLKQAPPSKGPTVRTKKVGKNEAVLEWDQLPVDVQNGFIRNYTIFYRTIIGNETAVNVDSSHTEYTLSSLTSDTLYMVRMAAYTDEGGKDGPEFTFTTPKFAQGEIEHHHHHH

[2] = target: T2, SEQ ID NO 127 (15-residue oligopeptide of human gp130) (human, also: linker added for immobilisation); test: peptide microarray, antibody at 10 ug/mL, fluorescence
T2 construct: also called 配列番号127
T2 peptide: VQDLKPFTEYVFRIR

[3] = target: T3, SEQ ID NO 128 (15-residue oligopeptide of human gp130) (human, also: linker added for immobilisation); test: as above
T3 construct: also called 配列番号128
T3 peptide: DLKPFTEYVFRIRCM

[4] = target: T4, SEQ ID NO 108 (15-residue oligopeptide of human gp130) (human, also: linker added for immobilisation); test: as above
T4 construct: also called 配列番号108
T4 peptide: SIKSVIILKYNIQYR

[5] = target: T5, SEQ ID NO 109 (15-residue oligopeptide of human gp130) (human, also: linker added for immobilisation); test: as above
T5 construct: also called 配列番号109
T5 peptide: KSVIILKYNIQYRTK

[6] = target: T6, SEQ ID NO 110 (15-residue oligopeptide of human gp130) (human, also: linker added for immobilisation); test: as above
T6 construct: also called 配列番号110
T6 peptide: VIILKYNIQYRTKDA

[7] = target: T1, 可溶性ヒトgp130受容体 (soluble human gp130 …); test: SPR, Biacore T200, gp130 amine-coupled on CM5, antibody as analyte
[8] = target: T1, 可溶性ヒトgp130受容体 (soluble human gp130 …); test: ELISA, immobilised soluble human gp130, COS1 supernatant, anti-human antibody-HRP
[9] = target: T1, 可溶性ヒトgp130受容体 (soluble human gp130 …); test: SPR, Biacore T200, gp130 amine-coupled on CM5 (266 RU), antibody as analyte

Kd [1]: 1.98 nM
koff [1]: 0.000221 s⁻¹
kon [1]: 111000 M⁻¹ s⁻¹
B1: ヒト化抗体AH2−2AL4F1 (antibody, human IgG1, kappa, V domains shown)
VH: QVQLQQPGAELVQPGTSVRLSCKASGYTFTDYNMDWVKQRPGQGLEWIGDINSHSGGIIYNQKFKDKATLTVDKSSSTAYMQLSSLTSEDSAVYYCARTYYVYGHFFDYWGQGTLVTVSA
VL: DIQMTQSPSSLSASVGDRVTITCNVSSSVTSMYWYQQKQGKSPQLLVYLTSNLASGVPSRFSGSGSGTQFSLKINNLQPEDFGSYYCQQWSTNPLTFGQGTKLDLKR
notes: also called AH2−2L4F1

Kd [1]: 1.3 nM
koff [1]: 0.000202 s⁻¹
kon [1]: 155000 M⁻¹ s⁻¹
B2: ヒト化抗体AH2−2L14A10 (antibody, human IgG1, kappa, V domains shown)
VH: B1 VH
VL: DIQMTQSPSTLSASIGDRVTITCNVSSSVTSMYWYQQKPGKAPKLLIYLTSNLASGVPSRFSGSGSGTDFTLTISSLQPEDFATYYCQQWSTNPLTFGQGTKLEIKR

Kd [1]: 0.991 nM
koff [1]: 0.000209 s⁻¹
kon [1]: 211000 M⁻¹ s⁻¹
B3: ヒト化抗体AH2−2L6E6 (antibody, human IgG1, kappa, V domains shown)
VH: B1 VH
VL: ELVLTQSPGTLSLSAGERATLSCNVSSSVTSMYWYQQKPGKAPKLLIYLTSNLASGVPSRFSGSGSGTDYTFTISSLQPEDIATYYCQQWSTNPLTFGQGTKVEIKR

binding result [2]: binds
binding result [3]: binds
binding result [4]: binds
binding result [5]: binds
binding result [6]: binds
Kd [7]: 0.667 nM
koff [7]: 0.000116 s⁻¹
kon [7]: 174000 M⁻¹ s⁻¹
B4: 抗体A (antibody A, mouse anti-human gp130 monoclonal antibody) (antibody, mouse IgG1, kappa, V domains shown)
VH: EVLLQQSGPELVKPGASVKIPCKASGYTFTDYNMDWVKQSHGKSLEWIGDINSHSGGIIYNQKFKDKAILTVDKSSSTAYMELRSLTSEDTAVYYCARTYYVYGHFFDYWGQGTTLTVSS
VL: QSVLTQSPAFISASPGEKVTMTCNVSSSVTSMYWYQQKPGSSPKPWIYLTSNLASGVPPRFSGSGSGTSYSLTISSLEAEDAATYYCQQWSTNPLTFGAGTKLELKR
notes: Mouse IgG1, kappa; also called マウス抗体A; ヒト化前の抗体A(マウス抗体)

binding result [8]: binds
B5: ヒト化抗体A AH8−AL4 (antibody, V domains shown)
VH: EVQLVQSGAEVKKPGASVKVSCKASGYTFTDYNMDWVRQAPGKGLEWVGDINSHSGGIIYNQKFKDRVTITADRSTSTVYMELSGLRSEDTAVYYCARTYYVYGHFFDYWGKGTLVTVSS
VL: DIQMTQSPSSLSASVGDRVTITCNVSSSVTSMYWYQQKQGKSPQLLVYLTSNLASGVPSRFSGSGSGTDFTLTISSLQPEDFATYYCQQWSTNPLTFGQGTKVEIK
notes: VH on human IgG1 constant region (pFUSEss-CHIg-hG1), VL on human kappa constant region (pFUSE2ss-CLIg-hk); also called AH8-AL4

binding result [8]: binds
B6: ヒト化抗体A AH9−AL7 (antibody, V domains shown)
VH: EVQLVESGGGLVQPGGSLRLSCKASGYTFTDYNMDWVRQAPGKGLEWVGDINSHSGGIIYNQKFKDRFTISADTSKNTAYLQMNSLRAEDTAVYYCARTYYVYGHFFDYWGQGTLVTVSS
VL: DIQMTQSPSTLSASIGDRVTITCNVSSSVTSMYWFQQRPGQAPKVLIYLTSNLASGVPSRFSGSGSGTDFTFTISSLQPEDIATYYCQQWSTNPLTFGGGTKVDIK
notes: VH on human IgG1 constant region (pFUSEss-CHIg-hG1), VL on human kappa constant region (pFUSE2ss-CLIg-hk); also called AH9-AL7

binding result [8]: binds
B7: ヒト化抗体A AH5−AL1 (antibody, V domains shown)
VH: EVQLVQSGPELKKPGASVKVSCKASGYTFTDYNMDWVKQRPGQGLEWIGDINSHSGGIIYNQKFKDRVTITADESTSTAYMELTSLTSEDTAVYYCARTYYVYGHFFDYWGQGTLVSVSS
VL: DIQMTQSPSSLSASVGDRVTITCNVSSSVTSMYWYQQKPGKAPKLLIYLTSNLASGVPARFSGSGSGTEFTLTISSLQPDDFATYYCQQWSTNPLTFGAGTKLDLK
notes: VH on human IgG1 constant region (pFUSEss-CHIg-hG1), VL on human kappa constant region (pFUSE2ss-CLIg-hk); also called AH5-AL1

binding result [8]: binds
B8: ヒト化抗体A AH7−AL1 (antibody, V domains shown)
VH: EVQLVQSGAEVKKPGATVKISCKASGYTFTDYNMDWVRQAPGQGLEWIGDINSHSGGIIYNQKFKDWVTMTRDTSINTAYMELRLRSDDTAVYYCARTYYVYGHFFDYWGQGTLVTVSA
VL: B7 VL
notes: VH on human IgG1 constant region (pFUSEss-CHIg-hG1), VL on human kappa constant region (pFUSE2ss-CLIg-hk); also called AH7-AL1

binding result [8]: binds
B9: ヒト化抗体A AH7−AL4 (antibody, V domains shown)
VH: B8 VH
VL: B5 VL
notes: VH on human IgG1 constant region (pFUSEss-CHIg-hG1), VL on human kappa constant region (pFUSE2ss-CLIg-hk); also called AH7-AL4

binding result [8]: binds
B10: ヒト化抗体A AH5−AL4 (antibody, V domains shown)
VH: B7 VH
VL: B5 VL
notes: VH on human IgG1 constant region (pFUSEss-CHIg-hG1), VL on human kappa constant region (pFUSE2ss-CLIg-hk); also called AH5-AL4

binding result [8]: binds
B11: ヒト化抗体A AH5−AL5 (antibody, V domains shown)
VH: B7 VH
VL: B7 VL with S9A, D17E, R18T
notes: VH on human IgG1 constant region (pFUSEss-CHIg-hG1), VL on human kappa constant region (pFUSE2ss-CLIg-hk); also called AH5-AL5

Kd [9]: 4.61 nM
koff [9]: 0.000289 s⁻¹
kon [9]: 62700 M⁻¹ s⁻¹
B12: ヒト化抗体AH2−AL4 (antibody, V domains shown)
VH: B1 VH with A97T
VL: B5 VL
notes: VH on human IgG1 constant region (pFUSEss-CHIg-hG1), VL on human kappa constant region (pFUSE2ss-CLIg-hk); also called AH2-AL4

binding result [8]: binds
B13: ヒト化抗体A AH7−AL5 (antibody, V domains shown)
VH: B8 VH
VL: B7 VL with S9A, D17E, R18T
notes: VH on human IgG1 constant region (pFUSEss-CHIg-hG1), VL on human kappa constant region (pFUSE2ss-CLIg-hk); also called AH7-AL5

binding result [8]: binds
B14: ヒト化抗体A AH7−AL3 (antibody, V domains shown)
VH: B8 VH
VL: B7 VL with S10T, A99Q, L103V, D104E, L105V
notes: VH on human IgG1 constant region (pFUSEss-CHIg-hG1), VL on human kappa constant region (pFUSE2ss-CLIg-hk); also called AH7-AL3

binding result [8]: binds
B15: ヒト化抗体A AH5−AL3 (antibody, V domains shown)
VH: B7 VH
VL: B7 VL with S10T, A99Q, L103V, D104E, L105V
notes: VH on human IgG1 constant region (pFUSEss-CHIg-hG1), VL on human kappa constant region (pFUSE2ss-CLIg-hk); also called AH5-AL3

Kd [9]: 3.8 nM
koff [9]: 0.000268 s⁻¹
kon [9]: 70600 M⁻¹ s⁻¹
B16: ヒト化抗体AH2−AL3 (antibody, V domains shown)
VH: B1 VH with A97T
VL: B7 VL with S10T, A99Q, L103V, D104E, L105V
notes: VH on human IgG1 constant region (pFUSEss-CHIg-hG1), VL on human kappa constant region (pFUSE2ss-CLIg-hk); also called AH2-AL3

binding result [8]: binds
B17: ヒト化抗体A AH7−AL2 (antibody, V domains shown)
VH: B8 VH
VL: DIQMTQSPSSLSASVGDRVTITCNVSSSVTSMYWYQQKQGKSPQLLVYLTSNLASGVPSRFSGSGSGTQFSLKINNLQPEDFGSYYCQQWSTNPLTFGAGTKLDLK
notes: VH on human IgG1 constant region (pFUSEss-CHIg-hG1), VL on human kappa constant region (pFUSE2ss-CLIg-hk); also called AH7-AL2

binding result [8]: binds
B18: ヒト化抗体A AH7−AL7 (antibody, V domains shown)
VH: B8 VH
VL: B6 VL
notes: VH on human IgG1 constant region (pFUSEss-CHIg-hG1), VL on human kappa constant region (pFUSE2ss-CLIg-hk); also called AH7-AL7

binding result [8]: binds
B19: ヒト化抗体A AH7−AL8 (antibody, V domains shown)
VH: B8 VH
VL: ELVLTQSPGTLSLSAGERATLSCNVSSSVTSMYWYQQKPGKAPKLLIYLTSNLASGAPSRFSGSGSGTDFTLTISSLQPDDFATYYCQQWSTNPLTFGGGTKLEIK
notes: VH on human IgG1 constant region (pFUSEss-CHIg-hG1), VL on human kappa constant region (pFUSE2ss-CLIg-hk); also called AH7-AL8

binding result [8]: binds
B20: ヒト化抗体A AH3−AL6 (antibody, V domains shown)
VH: QVQLVQSGAEVKKPGASVKVSCKASGYTFTDYNMDWVRQAPGQGLEWIGDINSHSGGIIYNQKFKDKATMTVDTSTNTAYMELSSLRSEDTAVYYCARTYYVYGHFFDYWGQGTLVTVSS
VL: EIVLTQSPATLSLSPGERATLSCNVSSSVTSMYWYQQKPGQAPRLLIYLTSNLASGIPDRFSGSGSGTDFTLTISRLEPEDFAVYYCQQWSTNPLTFGQGTKVEIK
notes: VH on human IgG1 constant region (pFUSEss-CHIg-hG1), VL on human kappa constant region (pFUSE2ss-CLIg-hk); also called AH3-AL6

binding result [8]: binds
B21: ヒト化抗体A AH7−AL6 (antibody, V domains shown)
VH: B8 VH
VL: B20 VL
notes: VH on human IgG1 constant region (pFUSEss-CHIg-hG1), VL on human kappa constant region (pFUSE2ss-CLIg-hk); also called AH7-AL6
